The values below come from the supplement of paper PMC9170038.

The test system of the series is MS2 coat protein. The series can be described thus: apparent KD of MS2 coat protein; designed switch direction (-1 OFF switch, 1 ON switch): 1; higher = weaker reporter binding. In short, it runs like this:
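The apparent KD reported per design is the median over clusters of curve fits to normalised cluster fluorescence. The RNA switches were transcribed on Illumina chips by stalled E. coli RNA polymerase. SNAP-549-labelled MS2 coat protein was titrated from 0.7 or 1.5 nM, doubling up to 3 µM, in Tris-HCl pH 7.5 buffer containing KCl, MgCl2, BSA, DTT, tRNA and Tween-20, with no input, 200 uM small-molecule ligand, or an oligonucleotide input.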

[1] abbreviates: input ligand: microRNA oligo, concentration not stated.
Where [2] appears, read: Eterna round: R95, input ligand: FMN 200 uM.
[3] abbreviates: Eterna round: R95, input ligand: microRNA oligo, concentration not stated.
Where [4] appears, read: Eterna round: R95, input ligand: none.

Consider “UUCCCAUCGGGAGGAUAUGGUACCUUAUUGGUUCUAGAAGGUCCAACAUGAGGAUCACCCAUGUGGGAGUGGUCUAAUGACCUC [SS NG10LRO04] (Eterna round: R96, puzzle: Same State NG 1)”, for which the “apparent KD of MS2 coat protein” value runs as follows: (input ligand: FMN 200 uM) 247 nM; under setting [1], 326 nM; (input ligand: none) 311 nM.
As to “UUCGAGUAGCAAGGAUAUCUUAUUUAGAUUUUAAGAGAAGGUGCUUCACAGCUACAUGAGGAUCACCCAUGUCUUUCUUCUUAU [JR_SSNG1_Sub065] (Eterna round: R96, puzzle: Same State NG 1)”, under setting [1], the “apparent KD of MS2 coat protein” value was determined as 27.3 nM.
“UUCUAACAUGAGGAUCACCCAUGUCAUAUGACAUGAGGAUAUGUACAGACUUCGGUCUGUACAGAAGGCAUGUUAG [SS1 - 1011 Omei Mod 7] (puzzle: Same State 1)”: the “apparent KD of MS2 coat protein” value reads like this: under setting [2], 31.6 nM; under setting [3], 10.7 nM; under setting [4], 20.5 nM.
As for “UUCUCUUUUUAGAGACAAGCUUUUUGAUCACAUGAGGAUCACCCAUGUCUCGUCUUAUGAUCUACUUCGGUAGAUCU [BA Sensor hsa-mir-208a - 2 - 5] (puzzle: Sensor for hsa-mir-208a)”, the “apparent KD of MS2 coat protein” value by setting is: under setting [2], 155 nM; under setting [3], 13.9 nM; under setting [4], 144 nM.
Take “UUGAAGAACUAAGGAUAUUGAAUACAUAUGUUUAACAUGAGGAUCACCCAUGUGGGUUGCGGUAUCGAGAAGGUAGAUUACUAG [Mat - Same State NG 2 - JL mod - D10] (Eterna round: R96, puzzle: Same State NG 2)”: the “apparent KD of MS2 coat protein” value under setting [1] came to 83.4 nM.
For “UUGAAGAAUAAAGGAUAUUGAAUACAUAUGUUUAACAUGAGGAUCACCCAUGUGGGUUGCGGUAUCGAGAAGGUUAAUUACUAG [Mat - Same State NG 2 - JL mod - D11] (Eterna round: R96, puzzle: Same State NG 2)”, the “apparent KD of MS2 coat protein” value reads like this: (input ligand: FMN 200 uM) 151 nM; under setting [1], 124 nM; (input ligand: none) 139 nM.
With “UUGAAGAAUUAAGGAUAUCGAGUCGUCAAAUUAAACAUGAGGAUCACCCAUGUGGGUUGUGGUAUCGAGAAGGUAAAUUACUAA [JR_SSNG2_Sub100] (Eterna round: R96, puzzle: Same State NG 2)”, the “apparent KD of MS2 coat protein” value reads like this: (input ligand: FMN 200 uM) 57.1 nM; under setting [1], 66.4 nM; (input ligand: none) 84.7 nM.
“UUGAAGAAUUAAGGAUAUUGAUUACAUAUGUUAAACAUGAGGAUCACCCAUGUGGGUUGCGGUAUCGAGAAGGUAAAUUAAAAG [Mat - same State NG 2 - JL mod - D78] (Eterna round: R96, puzzle: Same State NG 2)”: the “apparent KD of MS2 coat protein” value is 171 nM (input ligand: FMN 200 uM), 123 nM under setting [1] and 146 nM (input ligand: none).
Turning to “UUGAAUAAUUAAGGAUAUUGAGUACAUAUGUUUAACAUGAGGAUCACCCAUGUGGGUUGCGGUAUCGAGAAGGUAAAUUACUAG [Mat - same State NG 2 - JL mod - D67] (Eterna round: R96, puzzle: Same State NG 2)”, the “apparent KD of MS2 coat protein” value (input ligand: FMN 200 uM) turned out to be 145 nM, the “apparent KD of MS2 coat protein” value under setting [1] came out at 83.8 nM and the “apparent KD of MS2 coat protein” value (input ligand: none) amounted to 125 nM.
In the case of “UUGAGGAAUUAAGGAUAUUGAGUACAUAUGUUUAACAUGAGGAUCACCCAUGUGGGUUGCGGUAUCGAGAAGGUAAAUUACUAG [JL SSNG2 1.46] (Eterna round: R96, puzzle: Same State NG 2)”, the “apparent KD of MS2 coat protein” value (input ligand: FMN 200 uM) was 141 nM, the “apparent KD of MS2 coat protein” value under setting [1] was 83.8 nM and the “apparent KD of MS2 coat protein” value (input ligand: none) worked out at 168 nM.
Regarding “UUGCGGGAUUGAGGAUAUUGAGUACAUAUGUUUAACAUGAGGAUCACCCAUGUGGGUUGCGGUAUCGAGAAGGUAACUUACUAC [salish99_SSNG2_r04_805] (Eterna round: R96, puzzle: Same State NG 2)”, the “apparent KD of MS2 coat protein” value under setting [1] was found to be 75.5 nM.
